The test addresses purified bovine brain tubulin (bovine) (UniProt Q6B856). The experiment in a line: co-sedimentation; constant Chro-CTD (10 µg) with 0.125–2.5 µM taxol-stabilized microtubules from bovine brain tubulin; bound fraction in pellets by densitometry of immunoblots; Kd from a Lineweaver-Burk plot; three independent experiments.

B1: Chro-CTD (329–926), COOH-terminal domain of Chromator, GST-fusion protein (domain or fragment)
chain: AMDAFKQWVNETVAGDGSSSPSSANEDESSTEQEWPPSSGAIKRKLNNTDSSLEGSGLNDSMDLEDLEEDLPSHTVKRLKNGGSSVQLNKPRIQSTEKQQTKINGNSTVVSPLTEQKMGEIIYTEDSTSSGMFRKPEMPNTINLKKEKPECPVRYLSRSEVGSSTRGVFRVENSEAPAPVSPAPVPQKVIAAPPAAGIAKRLPMARPAHSGANSPITVGQRQHALRTPGHGPVTAALHRRPGVGGASHVRQNLQQAPGRAHPGGRVLARAGVGTPQHRQQVQTPQGAKAVTPEQKILQLSKSGDLKVTRKVVTREELLAQRSAQARQRQALSQQQSSQQQKATPARQRIVSKSTIQPTPLQMELEEEIHQHQAQLCPITGKLIGQEETQLQMEQEQQQEQQREQLEAAAQALLGSDQQVLTNEDGSALLVRGEDGTVYQVAGKNAEGQTILVTQGPDGEQQFAYVAAAEGEDQDVLSLDHAVAEAVQAGEQVESHGVGAATADGEQILVSMTEEELAQHQVLQQAEASAAGTGTPPTAQIHITTSDSDGTESQIPAEVVQADLPSPGGTRRVVLLLQDGTFMMTEMHEDQFKTLNIPT
What is called Kd is the constant that tells how readily two partners part at equilibrium. High values mean weaker binding, low ones tighter binding. B1 had an equilibrium dissociation constant (Kd) of 230 nM.

Values taken from article PMC4114980.
